Assay [1] addresses T1, CD19 (UniProt P15391 20-556).
T1 chain: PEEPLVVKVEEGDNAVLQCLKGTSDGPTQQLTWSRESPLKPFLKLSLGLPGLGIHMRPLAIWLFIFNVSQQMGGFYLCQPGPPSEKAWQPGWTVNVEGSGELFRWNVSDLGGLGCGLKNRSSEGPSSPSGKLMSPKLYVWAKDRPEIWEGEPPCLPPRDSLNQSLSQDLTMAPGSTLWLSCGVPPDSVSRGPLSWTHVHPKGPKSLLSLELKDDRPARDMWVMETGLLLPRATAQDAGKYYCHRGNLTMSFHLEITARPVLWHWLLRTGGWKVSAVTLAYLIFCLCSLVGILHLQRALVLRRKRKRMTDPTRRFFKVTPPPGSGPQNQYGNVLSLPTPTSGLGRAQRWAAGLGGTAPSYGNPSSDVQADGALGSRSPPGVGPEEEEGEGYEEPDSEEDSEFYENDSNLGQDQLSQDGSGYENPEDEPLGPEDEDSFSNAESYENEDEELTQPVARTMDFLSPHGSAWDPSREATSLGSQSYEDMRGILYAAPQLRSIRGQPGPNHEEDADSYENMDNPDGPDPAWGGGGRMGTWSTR
Description: flow cytometry cell binding; FIG. 6.

The target in assay [2] is T2, CD19 (UniProt P15391 20-556, limits assumed).
T2 sequence (looked up): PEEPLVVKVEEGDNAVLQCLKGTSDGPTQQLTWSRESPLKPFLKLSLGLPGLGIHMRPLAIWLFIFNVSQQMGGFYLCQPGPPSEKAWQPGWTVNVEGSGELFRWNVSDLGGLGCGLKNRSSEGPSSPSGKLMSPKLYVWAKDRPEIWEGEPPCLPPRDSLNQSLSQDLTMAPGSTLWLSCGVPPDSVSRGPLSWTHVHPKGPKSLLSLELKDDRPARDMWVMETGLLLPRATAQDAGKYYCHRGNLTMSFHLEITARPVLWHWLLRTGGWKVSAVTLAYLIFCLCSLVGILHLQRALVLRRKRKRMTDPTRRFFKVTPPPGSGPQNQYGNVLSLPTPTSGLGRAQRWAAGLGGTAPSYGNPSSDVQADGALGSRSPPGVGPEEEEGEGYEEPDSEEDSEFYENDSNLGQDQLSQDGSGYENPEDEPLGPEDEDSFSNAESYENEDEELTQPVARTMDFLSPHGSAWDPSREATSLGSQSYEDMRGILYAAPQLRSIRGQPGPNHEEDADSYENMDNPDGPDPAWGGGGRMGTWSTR
Description: cell-based or functional assay.

The target of assay [3] is T1, CD19. Description: flow cytometry cell binding; FIG. 7. Background: A flow cytometer gives signals particle by particle.
For assay [4], the target named is T1, CD19. Kind of assay: flow cytometry cell binding; FIG. 5; WT switch (no PNE).

As usually defined, the EC50 is the concentration needed to bring the measured effect to its halfway point. High values mean a need for much substance, low ones an effect from little substance.

B1: hFMCL2a-LCNT/hFMCH4b (Fab, V domains shown)
VH: QVQLQESGPGLVKPSETLSVTCTVSGVSLPDYGVSWIRQPPGKGLEWLGVIWGSETTYYNPSLKSRLTISKDNSKNQVSLKMSSLTAADTAVYYCAKHYYYGGSYAMDYWGQGTLVTVSS
VL: DIQMTQSPSSLSASVGDRVTITCRASQDISKYLNWYQQKPGKAVKLLIYHTSRLHSGVPSRFSGSGSGTDYTLTISSLQPEDFATYYCQQGATLPYTFGQGTKLEIK
As to B1, the EC50 in the assay with CD19 [1] was determined as 1.61 nM. In addition, in the assay with CD19 [2], the “EC50 of cytotoxicity (LDH), sCAR-T cells + switch vs CD19+ RS4;11, Average of the repeat assays” value amounted to 0.0068 nM; the “EC50 of cytotoxicity (LDH), sCAR-T cells + switch vs CD19+ RS4;11, assay DTR-5-15 (PBMC)” value (shortened to “EC50 … vs CD19+ RS4;11, assay DTR-5-15 (PBMC)”) was 0.0104 nM; the “EC50 of cytotoxicity (LDH), sCAR-T cells + switch vs CD19+ RS4;11, assay DTR-5-16 (CD4:CD8)” value (“EC50 … vs CD19+ RS4;11, assay DTR-5-16 (CD4:CD8)” for short) was 0.00603 nM; the “EC50 of cytotoxicity (LDH), sCAR-T cells + switch vs CD19+ RS4;11, assay DTR-5-50 (PBMC)” value (shortened to “EC50 … vs CD19+ RS4;11, assay DTR-5-50 (PBMC)”) worked out at 0.00529 nM. In addition, in the assay with CD19 [2], the “EC50 of cytotoxicity (LDH), sCAR-T cells + switch vs CD19+ RS4;11, assay DTR-5-51 (CD4:CD8)” value (“EC50 … vs CD19+ RS4;11, assay DTR-5-51 (CD4:CD8)” for short) stood at 0.00545 nM. This molecule displayed an EC50 with CD19 [3] of 2.43 nM.

B2: hFMCL2/H2 WT (antibody, V domains shown)
VH: QVQLQESGPGLVKPSETLSVTCTVSGVSLPDYGVSWIRQPPGKGLEWLGVIWGSETTYYNPSLKSRLTISKDTSKNQVSLKMSSLTAADTAVYYCARHYYYGGSYAMDYWGQGTLVTVSS
VL: DIQMTQSPSSLSASVGDRVTITCRASQDISKYLNWYQQKPGKAPKLLIYHTSRLHSGVPSRFSGSGSGTDYTLTISSLQPEDFATYYCQQGATLPYTFGQGTKLEIK
As for B2, in the assay with CD19 [4], the EC50 is 45.6 nM. Also, in the assay with CD19 [2], the “EC50 of cytotoxicity (LDH), sCAR-T cells + switch vs CD19+ RS4;11, Average of the repeat assays” value is 0.0843 nM; the “EC50 … vs CD19+ RS4;11, assay DTR-5-15 (PBMC)” value stood at 0.141 nM; the “EC50 … vs CD19+ RS4;11, assay DTR-5-16 (CD4:CD8)” value turned out to be 0.079 nM; the “EC50 … vs CD19+ RS4;11, assay DTR-5-50 (PBMC)” value was determined as 0.0386 nM. The “EC50 … vs CD19+ RS4;11, assay DTR-5-51 (CD4:CD8)” value with CD19 [2] turned out to be 0.0785 nM.

B3: hFMCL2c-LCNT/hFMCH4b (Fab, V domains shown)
VH: QVQLQESGPGLVKPSETLSVTCTVSGVSLPDYGVSWIRQPPGKGLEWLGVIWGSETTYYNPSLKSRLTISKDNSKNQVSLKMSSLTAADTAVYYCAKHYYYGGSYAMDYWGQGTLVTVSS
VL: DIQMTQSPSSLSASVGDRVTITCRASQDISKYLNWYQQKPGKAVKLLIYHTSRLHSGVPSRFSGSGSGTDYTLTISSLQPEDFATYFCQQGATLPYTFGQGTKLEIK
As for B3, a half-maximal effect with CD19 [1] (EC50) was put at 1.39 nM. Further, in the assay with CD19 [2], the “EC50 of cytotoxicity (LDH), sCAR-T cells + switch vs CD19+ RS4;11, Average of the repeat assays” value amounted to 0.00518 nM; the “EC50 … vs CD19+ RS4;11, assay DTR-5-15 (PBMC)” value is 0.00404 nM; the “EC50 … vs CD19+ RS4;11, assay DTR-5-16 (CD4:CD8)” value is 0.00325 nM; the “EC50 … vs CD19+ RS4;11, assay DTR-5-50 (PBMC)” value was found to be 0.00378 nM. Besides, the “EC50 … vs CD19+ RS4;11, assay DTR-5-51 (CD4:CD8)” value with CD19 [2] was found to be 0.00965 nM. In the assay with CD19 [3], the EC50 is 1.68 nM.

B4: hFMCL2/H4a WT (antibody, V domains shown)
VH: QVQLQESGPGLVKPSETLSVTCTVSGVSLPDYGVSWIRQPPGKGLEWLGVIWGSETTYYNPSLKSRLTISKDTSKNQVSLKMSSLTAADTAVYYCAKHYYYGGSYAMDYWGQGTLVTVSS
VL: DIQMTQSPSSLSASVGDRVTITCRASQDISKYLNWYQQKPGKAPKLLIYHTSRLHSGVPSRFSGSGSGTDYTLTISSLQPEDFATYYCQQGATLPYTFGQGTKLEIK
For the molecule B4, the EC50 with CD19 [4] turned out to be 6.65 nM. For the same molecule, in the assay with CD19 [2], the “EC50 of cytotoxicity (LDH), sCAR-T cells + switch vs CD19+ RS4;11, Average of the repeat assays” value was 0.0407 nM; the “EC50 … vs CD19+ RS4;11, assay DTR-5-15 (PBMC)” value stood at 0.0432 nM; the “EC50 … vs CD19+ RS4;11, assay DTR-5-16 (CD4:CD8)” value stood at 0.0507 nM; the “EC50 … vs CD19+ RS4;11, assay DTR-5-50 (PBMC)” value turned out to be 0.0283 nM. The “EC50 … vs CD19+ RS4;11, assay DTR-5-51 (CD4:CD8)” value with CD19 [2] worked out at 0.0407 nM.

Source of the values: patent US20190359697A1 (Scripps Research, published 2019).
